Measured values: paper PMC3463842

Molecular target: ubiquitin^TAMRA (C-terminal TAMRA-labelled ubiquitin) (UniProt P0CG48)
Assay: fluorescence polarisation

| Kd | Substance |
| --- | --- |
| 734 µM | HOIP^LDD C930A (domain or fragment) |
| 97 µM | HOIP^LDD (domain or fragment) |
